± gives the uncertainty stated by the source.

This series is described as follows: amyloid nucleation score (Sup35N fusion, yeast selection) (log enrichment); library NNK2; higher = more nucleation; inactive = no reads after selection. In a few lines:
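Peptides of 20 random codons fused to Sup35N were expressed in psi-negative yeast, induced 24 hours with 100 μM copper sulfate, then grown 7 days at 30°C on medium lacking adenine and uracil. Input and output plasmid inserts were Illumina-sequenced. Nucleation score is the DiMSum log enrichment of output over input reads, centred on the mode score of non-aggregating sequences, excluding sequences with under 100 input reads. Random libraries had three technical output replicates.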

As for LCWFSNRSRLEEVS, the amyloid nucleation score result is “inactive”.

Consider YGVVYAYYPDQVQWVGCNE, for which the amyloid nucleation score is -0.24 ± 0.64.

In the case of QRCISGNTNSVCRLEYRWLM, the amyloid nucleation score is 0.396 ± 0.44.

FKGSDHCSKCRQVGEFVFST had an amyloid nucleation score of -0.707 ± 1.1.

As for KHGSMVICKPAIYTVLT, the amyloid nucleation score is -0.021 ± 0.63.

GFALYFCSEFMVSVCRCKHT came in with an amyloid nucleation score of 9.613 ± 0.065.

IVDSFTYTDVSTGSYLFG: the amyloid nucleation score is -1.42 ± 0.75.

In turn, YVLQYTVKSDVWGTKAIRRP showed an amyloid nucleation score of 0.007 ± 0.79.

NRRMRKAEPLP showed an amyloid nucleation score of 0.644 ± 0.81.

The substance CGFSWCIDQLGTCLCKMVVV showed an amyloid nucleation score of -0.269 ± 0.28.

With AGPWGVSTFYAVHLLASLYP, the amyloid nucleation score is -0.446 ± 0.79.

As for YRFVLVRNKVSYH, the amyloid nucleation score is -0.827 ± 0.33.

In the case of GVSVMKVLYLCTIDKALCFG, the amyloid nucleation score stood at 6.06 ± 0.068.

VLGYPKTSTVHALPHTTMLP returned an amyloid nucleation score of 0.943 ± 0.53.

The substance ELRISPPDNRLWDPQ displayed an amyloid nucleation score of 0.183 ± 1.

In the case of YWFPEASMFLIPL, the amyloid nucleation score is -1.49 ± 1.1.

The substance KSRVVMRTHAHSALWKWPGR yielded an amyloid nucleation score of 1.64 ± 0.28.

Regarding GCRRISFKSHISGVEGTNGG, the amyloid nucleation score worked out at 1.2 ± 0.43.

For the substance GFDGLRVLLNEHNVIAK, the amyloid nucleation score was 0.771 ± 0.47.

As to ANSVCDNVVTVSLLRLYMVL, the amyloid nucleation score was found to be 5.39 ± 0.071.

In the case of HERGTNVLYTLVEWGARAVS, the amyloid nucleation score worked out at 1.16 ± 0.49.

Substance ANLCSAT displayed an amyloid nucleation score of -0.799 ± 0.44.

FWRTP yielded an amyloid nucleation score of -0.539 ± 0.5.

In turn, RRWYYFIEWRKYYQNRTVDQ gave an amyloid nucleation score of -0.321 ± 0.8.

NRNTTFLNYF: the amyloid nucleation score was determined as 1.94 ± 0.25.

Consider KTNVMERCHFQRILCFGMW, for which the amyloid nucleation score entry is “inactive”.

IVQFYYVMQYRFRYCLDRMH displayed an amyloid nucleation score of 1.01 ± 0.34.

Substance IVSCFTRVN yielded an amyloid nucleation score of 5.26 ± 0.059.

For MFVHLGGTWMQR, the amyloid nucleation score worked out at 5.135 ± 0.046.

In turn, RWITSAY gave an amyloid nucleation score of 0.709 ± 0.62.

Consider EDRVCAYLNRKYCRYLGHSM, for which the amyloid nucleation score is 1.29 ± 0.35.

On to SYIICELNQLLGFKNWHKTC, for which the amyloid nucleation score worked out at 2.83 ± 0.068.

Turning to AEAWGVFYHWHDT, the amyloid nucleation score is -0.493 ± 0.53.

Substance GCLLLPKGASHKIDYCGSDV returned an amyloid nucleation score of 0.396 ± 0.35.

Substance KVKSLYLSMVQGWMFYV displayed an amyloid nucleation score of -0.425 ± 0.24.

Take YSIFHFYLKGFGSTW: the amyloid nucleation score result was “inactive”.

VGIEEVIH registered an amyloid nucleation score of -0.249 ± 0.23.

GVSSKKV yielded an amyloid nucleation score of 4.768 ± 0.047.

DHCDAVNSFEEWLMRGVPYN displayed an amyloid nucleation score of -0.06 ± 0.45.

DYVCGGGFLTKDVSACGLYV displayed an amyloid nucleation score of 0.685 ± 0.46.

As for YSCVDAYG, the amyloid nucleation score entry is “inactive”.

Regarding LSVMLTYYGYMPNLYIVVRE, the amyloid nucleation score was -0.713 ± 0.49.

In turn, NLCHSNKCLNSRFSITHWV had an amyloid nucleation score of 0.246 ± 0.8.

Substance CSHTVFGSVCGFTLFQVH registered an amyloid nucleation score of 4.06 ± 0.13.

As for VYKFEKESLLTLSHIHKVAS, the amyloid nucleation score was -0.012 ± 1.1.

The substance IQLIQML had an amyloid nucleation score of 0.27 ± 0.57.

For TVASTYVLVTCHRAFDQS, the amyloid nucleation score came to 3.46 ± 0.079.

Substance SWRTWISRCYFTLDDVSKTA had an amyloid nucleation score of 0.181 ± 0.43.

Take FYFHEACPSRLHHTKSAIGK: the amyloid nucleation score was -0.839 ± 0.78.

GWAKPMGFNLILR gave an amyloid nucleation score of 0.265 ± 0.31.

Take SGYMMNFAA: the amyloid nucleation score came out at 1.24 ± 0.32.

With TFPSISTFARSLFFVYQVYP, the amyloid nucleation score is -1.13 ± 1.1.

Take VCTNFWELMVWAQQLLFCKL: the amyloid nucleation score entry was “inactive”.

Substance RKCFDRRDYIPKIGQIRMSC came in with an amyloid nucleation score of -0.48 ± 0.39.

In turn, KGLASKAHSIGLCT returned an amyloid nucleation score of 1.01 ± 0.25.

The substance CMMLAPLCLSLL yielded an amyloid nucleation score of -0.018 ± 1.1.

The substance CFLGHGCILVGYLRDYRLLR showed an amyloid nucleation score of 0.759 ± 0.67.

The substance STMWTIGSWLKAGALSFGFL displayed an amyloid nucleation score of -0.441 ± 0.36.

The substance VYSLYNDRYYC returned an amyloid nucleation score of -0.406 ± 0.31.

Consider FLKCNLTVDLIVMMKNIFSY, for which the amyloid nucleation score came out at 1.02 ± 0.39.

As for RIFVIVAGNYYFLAGFGYLA, the amyloid nucleation score is -1.74 ± 0.64.

The substance MSWIGCYYYFNAQQHNSG displayed an amyloid nucleation score of 9.318 ± 0.052.

As for ILHPADQNSCT, the amyloid nucleation score was -1.26 ± 0.34.

The substance YSMPRSN displayed an amyloid nucleation score of -0.548 ± 0.45.

With VLLSITSRRVMPTSKI, the amyloid nucleation score was determined as 0.594 ± 0.81.

Turning to ALFIEISPLTINLFTNAKSL, the amyloid nucleation score is -1.06 ± 0.76.

The substance VTRTDVKPKVVGRRRARLCL returned an amyloid nucleation score of 0.705 ± 0.44.

QEELSWSS: the amyloid nucleation score worked out at 0.131 ± 0.25.

FFYWLAMIW: the amyloid nucleation score was -0.582 ± 0.63.

For the substance LIVSAALRYNKDLLWIS, the amyloid nucleation score is -0.004 ± 0.39.

As to HLDYAGYIGDRSHTDFASGR, the amyloid nucleation score was 0.519 ± 0.46.

On to VFQQFNS, for which the amyloid nucleation score is 0.244 ± 0.62.

In the case of INLRIVSPIDLIVRWEDPTW, the amyloid nucleation score was -1.44 ± 0.33.

In the case of PLPGFRIMFLWRQNALPVQP, the amyloid nucleation score stood at 0.196 ± 0.64.

GTGMTYAIWLSGIGRMRFYY gave an amyloid nucleation score of -0.816 ± 0.33.

The substance GDKYCGLEPYGMGHNHMYAL displayed an amyloid nucleation score of 0.546 ± 0.56.

In turn, DWFCVHKV registered an amyloid nucleation score of 0.058 ± 1.

In turn, LIQVAFQLYATVQVTVKTDV displayed an amyloid nucleation score of 2.09 ± 0.26.

Regarding YDLSASLVFGMFVNDLRRSR, the amyloid nucleation score came out at 5.68 ± 0.096.

Substance LIVSKWVHLWGYNALDNKEK gave an amyloid nucleation score of -1.65 ± 0.62.

Substance CSLVAPGTYYYGEWFPGQMS yielded an amyloid nucleation score of -0.66 ± 0.29.

For EIFAGICSSLAFKGHGRKSG, the amyloid nucleation score was found to be 6.29 ± 0.065.

DTFPKHSQHAVVKRPQIYID had an amyloid nucleation score of -1.04 ± 1.1.

For WGCWTVRSTT, the amyloid nucleation score worked out at 0.92 ± 0.46.

In turn, GMVNIYDLCYMLLY showed an amyloid nucleation score of -1.21 ± 0.31.

Turning to FAIHLKLMYVGTDFSNVRDI, the amyloid nucleation score is -1.15 ± 0.76.

Regarding IIFPGCKYLRYKDKEK, the amyloid nucleation score entry is “inactive”.

In turn, CSIVVNQARCDGSCNYRKVM came in with an amyloid nucleation score of 9.731 ± 0.055.

Consider WGFIAVDGRPIVASLRYSMR, for which the amyloid nucleation score turned out to be 3.51 ± 0.084.

ESTLRVMGRKAISSGLMCIA showed an amyloid nucleation score of 0.269 ± 0.28.

Regarding SGIAWSLVNVGLGYHYMQGG, the amyloid nucleation score was determined as 0.178 ± 0.39.

VGSNKGAIIGLMVGGMVVIA came in with an amyloid nucleation score of 2.33 ± 0.21.

For IWFGVYIYFVDFRVILNRLL, the amyloid nucleation score entry is “inactive”.

With VMDLDAGTCWCISISGLTVR, the amyloid nucleation score worked out at 0.533 ± 0.35.

Substance MMNTMLHGIVVMNFSWVASW had an amyloid nucleation score of 4.26 ± 0.053.

PSVSRLIESNFCSSIRFFTH returned an amyloid nucleation score of -1.04 ± 0.64.

In turn, VILNYVIYL registered an amyloid nucleation score of 10.08 ± 0.071.

In the case of LAIVLRGNFTIVSTAIE, the amyloid nucleation score came to 3.26 ± 0.1.

Turning to SLQVDRNWGGS, the amyloid nucleation score was found to be 0.105 ± 0.55.

KSEVWSYLI yielded an amyloid nucleation score of 4.51 ± 0.061.

On to SPGYTMKGFRWWLLSILGAR, for which the amyloid nucleation score entry was “inactive”.

On to WFIWNVENR, for which the amyloid nucleation score was 7.15 ± 0.08.

As for KSRPSTV, the amyloid nucleation score was -1.68 ± 1.

For SNHVKCGWICKFSLRIQSVY, the amyloid nucleation score amounted to 0.129 ± 0.65.

In the case of LPTWYVLVPLMDYIYYLFKE, the amyloid nucleation score was -0.536 ± 1.

RDREIVQSLLHVLSQASLFV showed an amyloid nucleation score of -0.456 ± 0.35.

In the case of VLSYMFVYETMSEIFTFLVG, the amyloid nucleation score was -0.586 ± 0.49.

In the case of GCWKD, the amyloid nucleation score was 1.22 ± 0.36.

In turn, VLSYRVHLEPARCFSGGYCY displayed an amyloid nucleation score of 0.512 ± 0.19.

As to QIASYDFCHRVGRMGPTVCV, the amyloid nucleation score is -0.165 ± 0.54.

As for HRFSGVVIYNINRSSTIGN, the amyloid nucleation score was 7.328 ± 0.04.

Substance SWRENFGWGICCSTVWPRCR displayed an amyloid nucleation score of 1.86 ± 0.21.

Turning to VVMNLMEFMVRVSVLDNAEG, the amyloid nucleation score amounted to 4.47 ± 0.075.

The substance TTHVNLIKRRGYFRRCVFQL yielded an amyloid nucleation score of 0.087 ± 0.79.

PVRSRWPFSSSLAAVTTYRV: the amyloid nucleation score is 1.26 ± 0.41.

Substance RYKWFNKWYTCWYSRFKFYV returned an amyloid nucleation score of -1.13 ± 0.26.

On to LVFDRFDGNFNRSMSVAVRV, for which the amyloid nucleation score is -0.211 ± 0.39.

Substance WIKLAFDWKQF registered an amyloid nucleation score of -1.18 ± 0.55.

TLCRAGLNGPWLNVLRFVPR displayed an amyloid nucleation score of 0.615 ± 0.36.

In turn, GINVCFKHTMV yielded an amyloid nucleation score of 3.28 ± 0.062.

Take CAPVTLVFRYAGIYMQLFIW: the amyloid nucleation score result is “inactive”.

Substance MHQSQVMSLSDPAAGKSFWV yielded an amyloid nucleation score of -0.56 ± 0.79.

In the case of SCSIKSSTVVEDPF, the amyloid nucleation score was 0.049 ± 0.76.

Substance GHCFISEFLGRRVA came in with an amyloid nucleation score of 2.36 ± 0.08.

On to VLMEWTLGVTHDNISDDYSD, for which the amyloid nucleation score was found to be 2.58 ± 0.082.

As to DVACNTRKPCS, the amyloid nucleation score was -0.908 ± 0.78.

Consider QYSYGWHLRTIRIRRTCTGS, for which the amyloid nucleation score stood at 1.15 ± 0.31.

In turn, YLMVISEQIGDMCTISS showed an amyloid nucleation score of -1.36 ± 0.76.

GSFLFYCILPIYFLGAWMRV came in with an amyloid nucleation score of -1.4 ± 0.78.

Consider SIRARGLAMRSYSPT, for which the amyloid nucleation score was -0.093 ± 0.55.

For the substance RDISIMHRRRMNGLFNY, the amyloid nucleation score entry is “inactive”.

SFVLSSHKA: the amyloid nucleation score was 0.175 ± 0.61.

The substance FMSICR had an amyloid nucleation score of 1.47 ± 0.4.

Substance FCELLIVAVLLQGDSLKPQS gave an amyloid nucleation score of 0.485 ± 0.36.

Regarding IMASLRMKDANCLSCTCYNR, the amyloid nucleation score is 6.798 ± 0.027.

In turn, VAFFWIKFH yielded an amyloid nucleation score of -0.807 ± 1.

ITGTFF had an amyloid nucleation score of 1.99 ± 0.084.

LGSVLLRFRH came in with an amyloid nucleation score of -0.469 ± 0.23.

Regarding NIFFNL, the amyloid nucleation score was -0.13 ± 0.36.

In turn, TIQRRQFVNPDSVVMLRINY gave an amyloid nucleation score of -0.704 ± 0.76.

The substance QLVGDELMRCSNGAVDKNVA showed an amyloid nucleation score of 1.75 ± 0.24.

These data come from the supplement of paper PMC12042874.
